The values below come from patent US20060035265A1.

In assay [1] the target is FLAG-ZIgA fusion protein. The experiment in a line: scintillation counting of antibody-coated beads after mixing with 35S-labelled transcription/translation mix.
Assay [2] concerns the target FLAG-Zwt fusion protein. Described as above.
Assay [3] has as its target FLAG-ZIgA fusion protein. The experiment in a line: scintillation counting of beads after mixing with 35S-labelled transcription/translation mix; negative control without antibody.
Assay [4] has as its target FLAG-Zwt fusion protein. The assay is described as above.

Take “biotinylated anti-FLAG BioM5 monoclonal antibody (Sigma prod no. F-2922)”: the figures for the Signal (cpm) in the assay with FLAG-ZIgA fusion protein [1] and in the assay with FLAG-Zwt fusion protein [2] were 43700 cpm and 35000 cpm, respectively.
Take “streptavidin on native streptavidin (SA) beads (M-280-SA Dynabeads) (from UniProt P22629 37-163)”: the values for the Signal (cpm) with FLAG-ZIgA fusion protein [3] and in the assay with FLAG-Zwt fusion protein [4] were 5960 cpm and 4860 cpm, respectively.
